B1: CD40L (protein, UniProt P29965 113-261, looked up)
CD40 ligand, soluble form: MQKGDQNPQIAAHVISEASSKTTSVLQWAEKGYYTMSNNLVTLENGKQLTVKRQGLYYIYAQVTFCSNREASSQAPFIASLCLKSPGRFERILLRAANTHSSAKPCGQQSIHLGGVFELQPGASVFVNVTDPSQVSHGTGFTSFGLLKL
B2: recombinant IFN-β: murine rIFN-β (R&D Systems) (protein, UniProt P01575 22-182, looked up)
Interferon beta: INYKQLQLQERTNIRKCQELLEQLNGKINLTYRADFKIPMEMTEKMQKSYTAFAIQEMLQNVFLVFRNNFSSTGWNETIVVRLLDELHQQTVFLKTVLEEKQEERLTWEMSSTALHLKSYYWRVQRYLKLMKYNSYAWMVVRAEIFRNFLIIRRLTRNFQN

Legend:
Primary murine B cells = assay: Microarray analysis of primary murine B cells stimulated with LPS or CD40L; type: cell-based; details: LPS 20 μg/mL, soluble CD8/CD40L chimera 300 ng/mL
Method: (A) Primary murine B cells were stimulated with LPS (20 μg/mL) or a soluble CD8/CD40L chimera (300 ng/mL) and RNA was collected at indicated time points and used to conduct microarray analysis. […] Expression changes: Red—Induced, Green—Repressed, Black—No Change. Selected time points were hybridized to microarrays in duplicate to ensure reproducibility.
B cell isolation, target preparation, and hybridization using Affymetrix Mu6500 microarrays were performed as described previously (Dadgostar, H., Zarnegar, B., Hoffman, A., Qin, X.-F., Truong, U., Rao, G., Baltimore, D., and Cheng, G. (2002), Proc. Natl. Acad. Sci. USA 99, 1497-1502). Differential expression data was analyzed by Affymetrix Microarray Suite 4.0 software. Average difference change values were then normalized and the genes were clustered by the uncentered correlation average linkage hierarchical clustering algorithm using Cluster. Data was then visualized as a dendogram using Treeview software (www.rana.Ibl.gov/EisenSoftware.htm).
We have conducted a series of microarray experiments to determine gene expression patterns in murine B cells in response to activating stimuli such as LPS and CD40L. […] Genes were hierarchically clustered using average difference change values derived by comparing control samples (media 4h) with samples from cells treated with indicated stimulus.

BMMs = assay: Quantitative real-time PCR gene expression in BMMs, wild-type and IFNAR deficient (Example 2); type: cell-based, murine; details: rIFN-β 10, 100, 1000 units
Method: Murine BMMs were stimulated with poly(I:C) (10 μg/ml) or lipid A (1 ng/ml) for the indicated times. Total RiNA was isolated and converted to cDNA for quantitative real-time PCR analysis using primers specific for IFN-β, IFI-204, IP10, IκBα, or L32. Experiments were repeated three times, and the data are presented in relative expression units on a log scale, as described in Example 2, infra.
Primary macrophage cells derived from bone marrow cells were stimulated with poly I:C (1 μg/ml) or lipid A (1 ng/ml) for the indicated times, as described in Example 2, infra.
(B) TLR3 and TLR4 mRNA levels were also assessed in cells deficient in IFNAR, and cells stimulated with rIFN-β (10, 100, and 1000 U). Experiments were repeated at least two separate times, and data are presented in relative expression units. L32 was used to normalize all samples.
Both wild-type cells and cells deficient in IFNAR were stimulated with poly I:C (1 μg/ml) or lipid A (1 ng/ml) for either 1 or 4 h. IFN-β, IP10, IFI-204, ICAM1, and L32 mRNA levels were assessed. Data are representative of three independent experiments and presented in relative expression units, as described in Example 2, infra.
Murine bone marrow-derived macrophages (BMMs) were differentiated from marrow as previously described (Doyle, S. E., S. A. Vaidya, R. O'Connell, H. Dadgostar, P. W. Dempsey, T.-T. Wu, G. Rao, R. Sun, M. E. Haberland, R. L. Modlin, and G. Cheng. 2002. IRF3 mediates a TLR3/TLR4-specific antiviral gene program. Immunity 17:251). A129 (IFNAR-1^−/−) (Muller, U., U. Steinhoff, L. F. L. Reis, S. Hemmi, J. Pavlovic, R. M. Zinkernagel, and M. Aguet. 1994. Functional role of type I and type II interferons in antiviral defense. Science 264:1918) and B6129SF2/J wild type control mice were obtained from B&K Universal Ltd. and Jackson Laboratories, respectively. C57/B6 mice were used for all experiments not involving the A129 mice (Jackson Laboratories). Specific TLR activation was achieved using F-583 (Rd mutant) E. coli lipid A for TLR4 (Sigma), CpG oligonucleotides for TLR9 (Invitrogen) and poly I:C for TLR3 (Pharmacia). For experiments employing the TIRAP/MAL inhibitory peptide (CN Biosciences), cells were pretreated for 1 hour with 20 μM peptide or DMSO alone. Cells were then stimulated with PAMPs in the presence of the inhibitory peptide. For experiments using murine rIFN-β (R&D Systems), wild-type macrophage cells were stimulated with 10, 100, or 1000 units. Viral infection and harvest was performed using MHV68 at an M.O.I. of 5 as previously described (Doyle, S. E., S. A. Vaidya, R. O'Connell, H. Dadgostar, P. W. Dempsey, T.-T. Wu, G. Rao, R. Sun, M. E. Haberland, R. L. Modlin, and G. Cheng. 2002. IRF3 mediates a TLR3/TLR4-specific antiviral gene program. Immunity 17:251).
RNA was isolated by standard guanidium isothiocyanate methods. cDNA template for quantitative realtime PCR analysis was then synthesized and PCR was performed using the iCycler thermocycler (Bio-Rad) as previously described (Doyle, S. E., S. A. Vaidya, R. O'Connell, H. Dadgostar, P. W. Dempsey, T.-T. Wu, G. Rao, R. Sun, M. E. Haberland, R. L. Modlin, and G. Cheng. 2002. IRF3 mediates a TLR3/TLR4-specific antiviral gene program. Immunity 17:251). IFN-βIP10, IκBα and IFI-204 primers were the same as those previously described (Doyle, S. E., S. A. Vaidya, R. O'Connell, H. Dadgostar, P. W. Dempsey, T.-T. Wu, G. Rao, R. Sun, M. E. Haberland, R. L. Modlin, and G. Cheng. 2002. IRF3 mediates a TLR3/TLR4-specific antiviral gene program. Immunity 17:251). For other genes, the following primers were used: […]

Molecule | upregulation of genes previously characterized as interferon-responsive (Primary murine B cells) | TLR4 mRNA levels (BMMs; wild type cells) | TLR3 mRNA (BMMs; wild-type primary macrophages)
B1 | not | – | –
B2 | – | relatively unaltered | dose dependent upregulation

Reference: patent publication US20060057104A1, “Methods for stimulating tlr irf3 pathways for inducing anti-microbial, anti-inflammatory and anticancer responses” (THE Regents of the University of California Office of the …, priority 2002, published 2006)
